Test results taken from patent US20220125947A1 (published 2022).
Positions count from the first letter of the chain named.

T1: TCR gamma/delta constant region (TRGDC) (human, UniProt P0CF51 1-173; B7Z8K6 1-153)
T1 chain (looked up) 1: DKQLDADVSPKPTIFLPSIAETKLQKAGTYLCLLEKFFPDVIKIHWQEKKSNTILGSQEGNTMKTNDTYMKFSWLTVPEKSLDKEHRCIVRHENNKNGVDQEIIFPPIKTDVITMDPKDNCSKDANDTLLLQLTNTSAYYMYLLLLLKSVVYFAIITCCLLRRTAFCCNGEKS
T1 chain (looked up) 2: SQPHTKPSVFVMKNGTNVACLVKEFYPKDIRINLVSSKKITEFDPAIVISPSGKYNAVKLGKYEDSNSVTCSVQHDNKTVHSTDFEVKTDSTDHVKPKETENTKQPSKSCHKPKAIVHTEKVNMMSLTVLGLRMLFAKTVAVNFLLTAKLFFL

T2: T cell receptor (TCR) Vγ9 (TRGV9) (human, UniProt Q99603 21-122)
T2 sequence (looked up): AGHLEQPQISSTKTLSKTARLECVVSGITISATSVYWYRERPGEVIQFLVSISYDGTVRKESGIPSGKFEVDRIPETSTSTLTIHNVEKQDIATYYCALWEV

B1: VG9B386 (antibody, human IgG1, kappa, V domains shown)
VH: EVQLVESGGGLVKPGGSLRLSCAASGFTFSSYSMIWVRQAPGKGLEWVSSIGSSSTYIYYADSVRGRFTISRDNAKTSLYLQMNSLRAEDTAMYFCARDGETGGFDYWGQGILVTVSS
VL: EIVMTQSPGTLSLSPGERATLSCRASQSISRSYLAWYQQKPGQPPRLLIYGPSNRATGIPDRFSASGSGTDFTLTNSRLEPEDFAVYYCQQYGSLPLTFGGGTKVEIKR
B2: VG9B136 (antibody, human IgG1, kappa, V domains shown)
VH: QVQLQQSGPGLVKPSQTLSLTCAISGDSVSSNRAAWNWIRQSPSKGLEWLGRTYYRSKWYNEYAASVKSRMSINPDTSKNQFSLQLNSVTPEDTALYYCARDLWELREACDIWGQGTMVTVSS
VL: DIVMTQSPSFLSTFVGDRVTITCRASQGISSYLAWYQQKPGKVPKLLIYVASTLQSGVPSRFSGSGSGTEFTLTISSLQPEDFATYYCQQLNSYPFTFGPGTKVDIKR
B3: VG9B112 (antibody, human IgG1, kappa, V domains shown)
VH: QVQLQQSGPGLVKPSQTLSLTCAISGDSVSSNSAAWNWIRQSPSRGLEWLGGTYYRSKWFNNYAVSVKSRITINPDTSTNQFSLQLNSVTPADTAVYYCARGEWGLRDAFDIWGQGTMVTVSS
VL: B2 VL with V3Q, T13A, F14S, T20I, S30H, F96W, P100Q, V104L, D105E
B4: VG9B369 (antibody, human IgG1, kappa, V domains shown)
VH: EVQLLESGPTLVKPTQTLTLTCTFSGFSLSTIGVGVGWIRQPPGKALEWLSLIYWNDDKRYNPSLKSRLTITKDTSKNQVVLTMTNMDPVDTATYYCAHSHDWVHAFDIWGQGTMVTVSS
VL: DIVMTQSPSSLSASVGDRVTITCQASQDISHYLNWYQQKPGKAPKFLIYDASNLDTGVPSRFSGSGSGTDFTFTISSLQPEDIATYYCQQYDNFPLTFGGGTKVEIKR
B5: VG9B410 (antibody, human IgG1, kappa)
heavy: not shown
light: DIQMTQSPSSVSASVGDRVTITCRASQGINSWLAWYQQKPGNAPKLLIYAASSLQSGVPSRFSGIGSGTDFIFTISSLQPEDFASYYCQQANSFPWTFGQGTKVEIKRTVAAPSVFIFPPSDEQLKSGTASVVCLLNNFYPREAKVQWKVDNALQSGNSQESVTEQDSKDSTYSLSSTLTLSKADYEKHKVYACEVTHQGLSSPVTKSFNRGEC
B6: VG9B144 (antibody, human IgG1, lambda, V domains shown)
VH: QVQLVQSGAEVKKPGASVKVSCKASGYTFTGYYMHWMRQAPGQGLEWMGWINPNSGATNKEQKFQGRVTMTRDTSISTAYMELSRLRSDDTAVYYCAREDDAFDVWGQGTMVTVSS
VL: SSELTQDPAVSVALGQTVRITCQGDNLRNYYATWFQQKPGQAPVLVFFGKNNRPSGIPDRFSGSSSGDTASLTITGAQAEDEADYYCNSRDSSGNHVVFGGGTKLTVLG
B7: VG9B387 (antibody, human IgG1, lambda, V domains shown)
VH: EVQLVESGAEVKKPGASVKVSCKASGFTFTGYYLQWVRQAPGQGLEWMGWINPNSGYTDYAQRFQDRVTMTRDTSINTAYMELSRLRSDDTAVYYCARLDDAFDVWGQGTMVTVSS
VL: B6 VL with S2Y, N26S, T33I, F35Y, F47I, D68T, A77T, V97W
B8: VG9B125 (antibody, human IgG1, kappa, V domains shown)
VH: EVQLVESGGTLVQPGGSLRLSCAVSGFTFSSYDMNWVRQAPGKGLEWVSYISSSSTAKYYADSVKGRFTISRDNAKNSLYLQMNSLWDEDTAVYYCAREDIVVVTPILQHWGQGTTVTVSS
VL: EIVMTQSPATLSLSPGERAILSCRASQSVSKDLAWYQQKPGQAPRLLIYDASNRATGIPARISGSGSGTDFTLTISSLEPEDFAVYYCQQRINWPLFTFGPGTKVEIKR
B9: VG9B416 (antibody, human IgG1, kappa)
heavy: not shown
light: EIVLTQSPGTLSLSPGDRATLSCRASQSVASSYLAWYQQKPGQSPRLLIYGASSRATGIPDRFSGSGSGTDFTLTISRLEPEDFAVYYCQQYGSSPPYTFGQGTKLEIKRTVAAPSVFIFPPSDEQLKSGTASVVCLLNNFYPREAKVQWKVDNALQSGNSQESVTEQDSKDSTYSLSSTLTLSKADYEKHKVYACEVTHQGLSSPVTKSFNRGEC
B10: VG9B44 (antibody, human IgG1, kappa, V domains shown)
VH: QVQLQQSGPGLVKPSQTLSLTCAISGDSVSSNSAAWNWIRQSPSRGLEWLGRTYYRSKWYNDYPISVKSRISINPDTSKNQFSLQLNSVTPEDTAVYYCARESGSYYTDGFDIWGQGTMVTVSS
VL: DIQMTQSPSFLSASVGDRVTITCRASQGISSYLAWYQQKPGKAPKLLIYAASTLQSGVPSRFSGSGSGTEFTLTISSLQPEDFATYYCQEFNSYPYTFGQGTKLEIKR
B11: VG9B36 (antibody, human IgG1, kappa, V domains shown)
VH: QVQLVESGGGLVKPGGSLRLSCASSGFTFSSYGMYWVRQAPGKGLEWVSSISTGSSYIYYADSVKGRFTISRDNAKNSLYLQMNSLRAEDTAVYYCARDKGLAVTGYIMDVWGQGTTVTVSS
VL: EIVLTQSPSSLSASVGDRVTITCQASQDISNYLNWYQQKPGKAPKLLIYDASNLETGVPSRFSGSGSGTDFTFTISSLQPEDIAIYYCQQYDNLPMYTFGQGTKVEIKR
B12: VG9B403 (antibody, human IgG1, kappa)
heavy: not shown
light: B9 light with E1D, L4M, L106V
B13: VG9B191 (antibody, human IgG1, lambda, V domains shown)
VH: EVQLVQSGGGLVKPGGSLRLSCAASGFTFSRYSMNWVRQAPGKGLEGVSSISSSSSYIYYADSVKGRFTISRDNAKNSLYLQMNSLRAEDTAVYYCARDGPTVNWDYYFDLWGRGTLVTVSS
VL: QSVLTQPPSVSAAPGQKVTISCSGSSSNIGNNYVSWYQQLPGTAPKLLIYDNNKRPSGIPDRFSGSKSGTSATLGITGLQTGDEADYYCGTWDSSLSTSVVFGGGTKLTVLG

Target: T1, TCR gamma/delta constant region (TRGDC)
Assay: cell-based or functional assay

Binder | CD25+ (Vg9+ cells), flow staining [%] | CD71+ (Vg9+ cells), flow staining [%] | Granzyme B; Luninex (supernatant) | IFNγ; Luninex (supernatant) | IL6; Luninex (supernatant) | TNFα; Luninex (supernatant) | Vg9 T cell %, flow staining [%]
B1 | 29.7 | 97 | 2960 | 846 | 228 | 89 | 8.5
B2 | 33.3 | 94.9 | 1540 | 560 | 279 | 192 | 5.7
B3 | 23.4 | 91.8 | 1140 | 461 | 256 | 1260 | 7.9
B4 | 27.1 | 92.4 | 2630 | 1460 | 4900 | 138 | 6.1
B5 | 36.5 | 98.2 | 4390 | 2120 | 590 | 158 | 12.3
B6 | 20.6 | 89.6 | 1760 | 352 | 123 | 215 | 3.8
B7 | 24.7 | 89.7 | 1470 | 746 | 5200 | 135 | 5.5
B8 | 24.8 | 70.8 | 3760 | 1490 | 587 | 959 | 12.4

Target: T2, T cell receptor (TCR) Vγ9 (TRGV9)
Assay: cell-based or functional assay

Binder | CD25+ (Vg9+ cells), flow staining [%] | CD71+ (Vg9+ cells), flow staining [%] | Granzyme B, Luminex (supernatant) | IFNγ, Luminex (supernatant) | IL6, Luminex (supernatant) | TNFα, Luminex (supernatant) | Vg9 T cell %, flow staining [%]
B9 | 46.4 | 98.8 | 3390 | 1180 | 225 | 87 | 13.9

Target: T3, γδ T cell receptor on human γδ T cells (human)
T3 construct: Mixed population of primary cells; also called AG000003021 (γδ T cells)
Assay: flow cytometry, dose-response binding at 37° C. on human γδ T cells
Method: Binding of antibodies to human γδ T cells or SKW cell lines expressing Vγ9/Vδ2, Vγ9/Vδ2 or Vγ5/Vδ2 was carried out by flow cytometry. Briefly, the cells were centrifuged at 300×g for 5 minutes and the pellet was resuspended in 34 ml fresh media (in RPMI+10% FBS). 50 μL of the cells were then plated (44K cells/well) into assay plates. Samples were incubated for one hour at 37° C. in tissue culture (TC) incubator followed by wash steps by adding 100 μl FACS staining buffer. Secondary detention antibodies (A647 conjugated anti-human IgG Fc specific antibody (2 μg/mL) along with AF488 anti mouse CD3, clone OKT3 at 1 ug/mL) were added at 50 μL/well to appropriate wells according to the plate map. After incubating for 60 minutes at 37° C. in the TC incubator, cells were again washed as described above. This is followed by resuspension in 20 μL/well running buffer containing 1:1000 dilution of Sytox blue dead cell stain and the plates were run on iQue Screener.
Gating and data analysis: Human anti-human Vγ9 antibody (VG9B2 mAb at 10 nM) was used to mark the gating of positive population. All cells were first gated for singlets on SCS-A vs. SCS-H dot plot, live/dead followed by CD3 positive population, and this subset of CD3 positive population was gated for Vγ9 positive binding using positive control mAb. Cells were also assessed for cell binding of control mAbs by RL1 (A647) Geomeans from the live cell population. Advanced metrics were used and normalization metrics were chosen to calculate fold over background wells containing secondary antibody alone (designated as ‘background’ within ForeCyt settings).

Binder | Max. Activity [fold over background]
B10 | 2320
B11 | 2410
B12 | 2390
B13 | 2370
